Like-named read-outs stand apart in the source and are kept apart here.
Assays:
[1] = molecular target: T1, Fc tagged human SIRPα v2 ECD recombinant protein (human); test: ELISA
T1 construct: range 1-369; cloned range M1-R369 includes the signal peptide; also called hSIRPα V2
Summary of the method: (§1)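 Purified hybridoma or chimeric antibodies were incubated on antigen-coated plates for 1 hour at 37° C. Bound antibody was detected with HRP-labeled anti-mouse or anti-human IgG (1 hour, 37° C.), then TMB for 15 minutes at room temperature, stopped with 1N HCl. EC₅₀ derived from OD 450 nm.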

[2] = molecular target: T2, Fc tagged human SIRPβ ECD recombinant protein (human, UniProt O00241 30-371); test: ELISA
T2 construct: range 1-371; cloned range includes the signal peptide; also called hSIRPβ; not shown: human IgG Fc region (hFc) of the pCPC vector
Summary of the method: as §1

[3] = molecular target: T1, Fc tagged human SIRPα v2 ECD …; test: ELISA; remark: listed apart in the source
Summary of the method: as §1

[4] = molecular target: T2, Fc tagged human SIRPβ ECD recombinant …; test: ELISA; remark: listed apart in the source
Summary of the method: as §1

[5] = molecular target: 6×His tagged human SIRPα v2 ECD recombinant protein (human); test: SPR (Biacore)
Experimental: (§2) Anti-SIRPα chimeric antibodies were characterized for binding affinity against human SIRPα v1, human SIRPα v2 and C57BL/6 mouse SIRPα using Biacore (GE). Briefly the antibodies to be tested were captured to CM5 chip (GE) using Human Antibody Capture Kit (GE). The antigens of 6×His tagged human SIRPα v1, human SIRPα v2 and C57BL/6 mouse SIRPα ECD recombinant proteins were serially diluted for multiple doses and injected at 30 μl/min for 180 s. Buffer flow was maintained for dissociation of 400 s. 3 M MgCl₂ was used for chip regeneration. The association and dissociation curves were fit with 1:1 binding model, and the Ka/Kd/KD values for each antibody were calculated.

[6] = molecular target: T3, 6×His tagged human SIRPα v1 ECD recombinant protein (human, UniProt P78324 31-373); test: SPR (Biacore)
T3 construct: extracellular domain; bought; also called hSIRPα V1 (SPR antigen)
Experimental: as §2

[7] = molecular target: T4, biotin labeled soluble human SIRPα v1 ECD recombinant protein (human, UniProt P78324 31-373, biotin labeled); test: competitive ELISA; competitor 001
T4 construct: extracellular domain
Experimental: (§3) Competitive ELISA assay was used for epitope binning of 9 functional antibodies. Briefly excessive competitor antibody and biotin labeled soluble human SIRPα v1 ECD recombinant protein were co-incubated with ELISA microplate coated antibody. After washing, HRP-SA was added and incubated at 37° C. for 1 hour. Then, […] of TMB solution (Biotechnology) was added. After incubation for 15 minutes at room temperature, the reaction was stopped by the addition of […] of 1N HCl. OD 450 nm was read. Competition ratio was calculated. The antibodies that can compete each other for binding to SIRPα have the similar binding epitope.

[8] = molecular target: T4, biotin labeled soluble human SIRPα v1 …; test: competitive ELISA; competitor 002
Experimental: as §3

[9] = molecular target: T4, biotin labeled soluble human SIRPα v1 …; test: competitive ELISA; competitor 035
Experimental: as §3

[10] = molecular target: T4, biotin labeled soluble human SIRPα v1 …; test: competitive ELISA; competitor 050
Experimental: as §3

[11] = molecular target: T4, biotin labeled soluble human SIRPα v1 …; test: competitive ELISA; competitor 055
Experimental: as §3

[12] = molecular target: T4, biotin labeled soluble human SIRPα v1 …; test: competitive ELISA; competitor 060
Experimental: as §3

[13] = molecular target: T4, biotin labeled soluble human SIRPα v1 …; test: competitive ELISA; competitor 074
Experimental: as §3

[14] = molecular target: T4, biotin labeled soluble human SIRPα v1 …; test: competitive ELISA; competitor HEFLB
Experimental: as §3

[15] = molecular target: T4, biotin labeled soluble human SIRPα v1 …; test: competitive ELISA; competitor KWAR23
Experimental: as §3

[16] = molecular target: T4, biotin labeled soluble human SIRPα v1 …; test: competitive ELISA; competitor 29-AM4-5
Experimental: as §3

B1: chimeric antibody 035c (antibody, V domains shown)
VH: QIQLVQSGPELRKPGETVKISCKASGYSFTNYAMNWVKQAPGKVLKWMGFINTYTGEPTYADDFKGRFAFSLETSASTAYLQINNLKNEDTATYFCTRTRGYYDFDGGAFDYWGQGTSLTVSS
VL: DIVMTQSQKFMSTSIGDRVSVTCKASQNVGTHLAWYQQKPGQSPKALIFSASYRYIGVPDRFTGSGSGTDFTLTITNVQSEDLAEYFCQQYNTYPLTFGAGTKLELK
With B1 the EC50 [1] was 0.08 nM, the EC50 [2] was 0.08 nM and the EC50 [3] was 0.08 nM. The EC50 [4] was 0.08 nM, the Kd [5] was 2.62 nM and the Kd [6] was 1.11 nM.

B2: chimeric antibody 055c (antibody, V domains shown)
VH: EVKLVESEGGLVQPGDSMKLSCTASGFTFSDYFMTWIRQVPEKGLEWIANVNYDGRSTYYLDSLKSRFIISRDNANNILYLQMSSLKSEDTATYYCAREGSQTPLYAVDYWGQGTSVTVSS
VL: DIVMTQSQKFMSTTVGDRVNITCKASQNVGTAVAWYQQKPGQSPKLLIYLASNRYTGVPDRFTGSGSGTDFTLTVSDMRSEDLADYFCQQYSIYPFTFGSGTKLEIK
In the case of B2, the EC50 [1] is reported as 0.11 nM, the EC50 [3] is reported as 0.11 nM and the Kd [5] is reported as 28.5 nM. The Kd [6] was 16.6 nM.

B3: chimeric antibody 022c (antibody, V domains shown)
VH: QIQLVQSGPELKKPGETVKISCKASGYTFTDYAMHWVKQAPGKGLKWMGWKNTETGESTYAEDFKGRFAFFLETSASTAYLQINNVKNEDTATYFCARGGYGSNYVMDYWGQGTSVIVSS
VL: DIQMTQSSSSFSVSLGDRVTITCKASEDIYNRLAWYQQKPGNAPRLLISGATSLETGVPSRFSGSGSGKDYTLSITSLQTEDVATYYCQQYWNSPRTFGGGTKLEIK
B3 showed an EC50 [1] of 0.11 nM, an EC50 [2] of 0.08 nM and an EC50 [3] of 0.11 nM. For the same binder, the EC50 [4] was 0.08 nM, the Kd [5] was 25.6 nM and the Kd [6] was 5.9 nM.

B4: chimeric antibody 001c (antibody, V domains shown)
VH: EVKLEESGGGLVQPGGSMKLSCVASGFTFRNYWMNWVRQSPERGLEWIAEISLKSNTYATHYAESVKGRFAISRDGSKSSFYLQMNDLRAEDTGIYYCTTFTKVVADWHLDVWGAGTTVTVSS
VL: DVLMTQTPLSLPVSLGDQASISCRSSQNIVHSNGNTYLEWYLQKPGQSPKLLIYKVSNRFSGVPDRFSGSGSGTDFTLRISRVEAEDLGVYYCFQGSHVPFTFGSGTKLEIK
In the case of B4, the EC50 [1] is reported as 0.09 nM, the EC50 [2] is reported as 0.12 nM and the EC50 [3] is reported as 0.09 nM. It also gave an EC50 [4] of 0.12 nM, a Kd [5] of 20.6 nM and a Kd [6] of 11.4 nM.

B5: chimeric antibody 032c (antibody, V domains shown)
VH: EVRLEESGGGLVQPGGSMKLSCVVSGFTFRNYWMNWVRQSPERGLEWIAEITLKSNTYATHYAESVKGRFAISRDDSKSSFYLQMNDLRPEDTGIYYCTTFTKVVADWHLDVWGAGTTVTVSS
VL: DVLMTQTPLSLPVNLGDQASISCRSSQNIVHSNGNTYLEWYLQKPGQSPKLLIYKVSNRFSGVPDRFSGSGSGTDFTLRISRVEAEDLGVYYCFQGSHVPFTFGSGTKLEIK
With B5 the EC50 [1] was 0.11 nM, the EC50 [2] was 0.12 nM and the EC50 [3] was 0.11 nM. It also gave an EC50 [4] of 0.12 nM, a Kd [5] of 14.7 nM and a Kd [6] of 8.92 nM.

B6: chimeric antibody 002c (antibody, V domains shown)
VH: EVKLEESGGGLVQPGGSMILSCVASGFTFRNYWMNWVRQSPERGLEWIAEITLKSNTYATHYAESVKGRFAISRDDSKSSFYLQMNDLRPEDTGIYYCTTFTKVVADWHLDVWGAGTTVTVSS
VL: DVLMTQTPLSLPVSLGDQASISCRSSQNIVHSNGNTYLEWYLQKPGQSPKLLIYKISNRFSGVPDRFSGSGSGTDFTLRISRVEAEDLGVYYCFQGSHVPFTFGSGTKLEIQ
B6 was tested, and the EC50 [1] was 0.06 nM, the EC50 [2] was 0.11 nM and the EC50 [3] was 0.06 nM. The EC50 [4] was 0.11 nM, the Kd [5] was 28.3 nM and the Kd [6] was 16.1 nM.

B7: chimeric antibody 060c (antibody, V domains shown)
VH: QVQLKESGPGLVAPSESLSITCTVSGFSLTNYDISWIRQSPGKGLEWLGVIWTGGDTNFNSAFMSRLSISKDKSKSQVFLKLNSLQTDDTAIYYCVRVQYFGGSYGPMDYWGQGISVTVSS
VL: DIQMTQASSYLSVSLGGRVTITCEASDHINDWLAWYQQTPGNAPRLLISGATSLETGVPSRFSGSGSGKDYTLSITSLQTEDIATYYCQQYWNTPLTFGAGTRLELK
For B7, the EC50 [2] was 0.24 nM, the EC50 [4] was 0.24 nM and the Kd [6] was 1.49 nM.

B8: chimeric antibody 074c (antibody, V domains shown)
VH: QVQLQQPRAELVKPGASVMLSCKASGYTFSSYWIHWVRQGPGQGLEWIGLIHPNSGNTDCSETFKNKATLTVDTSSSTAYMQLSSLASEDSAVYYCARDGASYDWFVHWGQGTLVTVSA
VL: not shown
Work on B8 yielded an EC50 [1] of 0.14 nM, an EC50 [2] of 0.11 nM and an EC50 [3] of 0.14 nM. For the same binder, the EC50 [4] was 0.11 nM, the Kd [5] was 25.2 nM and the Kd [6] was 4.4 nM.

B9: chimeric antibody 050c (antibody, V domains shown)
VH: QIQLVQSGPELKKPGETVKISCKASGYTFTHYSMHWVKQAPGKGLKWMGWINTETAEPTYVDDFKGRFAFSLEASASTAFFQINNLKNEDTATYFCARGGLRQGDYWGQGTTLTVSS
VL: QIVLTQSPPIMSASPGEKVTLTCSATSSVSASYLYWFQQKPGSSPKLWIYSTSNLASGVPARFSGSGSGTSYSLTISNMEPADAASYFCHQWSSYPYTFGGGTKLEIK
For B9, the EC50 [1] was 0.1 nM, the EC50 [2] was 0.08 nM and the EC50 [3] was 0.1 nM. The EC50 [4] was 0.08 nM, the Kd [5] was 4.72 nM and the Kd [6] was 3.07 nM.

B10: reference antibody KWAR23 (antibody, V domains shown)
VH: EVQLQQSGAELVKPGASVKLSCTASGFNIKDYYIHWVQQRTEQGLEWIGRIDPEDGETKYAPKFQDKATITADTSSNTAYLHLSSLTSEDTAVYYCARWGAYWGQGTLVTVSS
VL: QIVLTQSPAIMSASPGEKVTLTCSASSSVSSSYLYWYQQKPGSSPKLWIYSTSNLASGVPARFSGSGSGTSYSLTISSMEAEDAASYFCHQWSSYPRTFGAGTKLELK
For B10, the EC50 [1] was 0.09 nM, the EC50 [2] was 0.08 nM and the EC50 [3] was 0.09 nM. For the same binder, the EC50 [4] was 0.08 nM, the Kd [5] was 14.7 nM and the Kd [6] was 2.66 nM. The “% Competition” value [7] was 85%, the “% Competition” value [8] was 49% and the “% Competition” value [9] was 4%. For the same binder, the “% Competition” value [10] was 5%, the “% Competition” value [11] was 1% and the “% Competition” value [12] was 5%. For the same binder, the “% Competition” value [13] was 1%, the “% Competition” value [14] was 27% and the “% Competition” value [15] was 95%. For the same binder, the “% Competition” value [16] was 54%.

B11: reference antibody 29-AM4-5 (antibody, V domains shown)
VH: EVQLVESGGGLVQPGGSLRLSCAASGFNISYYFIHWVRQAPGKGLEWVASVYSSFGYTYYADSVKGRFTISADTSKNTAYLQMNSLRAEDTAVYYCARFTFPGLFDGFFGAYLGSLDYWGQGTLVTVSS
VL: DIQMTQSPSSLSASVGDRVTITCRASQSVSSAVAWYQQKPGKAPKLLIYSASSLYSGVPSRFSGSRSGTDFTLTISSLQPEDFATYYCQQAVNWVGALVTFGQGTKVEIK
For B11, the EC50 [1] was 0.08 nM, the EC50 [2] was 0.08 nM and the EC50 [3] was 0.08 nM. For the same binder, the EC50 [4] was 0.08 nM, the “% Competition” value [7] was 97% and the “% Competition” value [8] was 94%. The “% Competition” value [9] was 98%, the “% Competition” value [10] was 7% and the “% Competition” value [11] was 0%. The “% Competition” value [12] was 10%, the “% Competition” value [13] was 4% and the “% Competition” value [14] was 25%. The “% Competition” value [15] was 93% and the “% Competition” value [16] was 91%.

Source: patent US20210347908A1 (ELPISCIENCE SUZHOU BIOPHARMA, published 2021)
